The values below come from publication PMC12098869, “An mRNA-display derived cyclic peptide scaffold reveals the substrate binding interactions of an N-terminal cysteine oxidase” (Nature Communications, 2025).

Assay [1] addresses T1, human ADO (Homo sapiens, UniProt Q96SZ5).
T1 construct: Full-length human ADO (Uniprot ID: Q96SZ5) was cloned; made in house; host or cells: E. coli Rosetta2(DE3)
T1 sequence (Q96SZ5 1-270): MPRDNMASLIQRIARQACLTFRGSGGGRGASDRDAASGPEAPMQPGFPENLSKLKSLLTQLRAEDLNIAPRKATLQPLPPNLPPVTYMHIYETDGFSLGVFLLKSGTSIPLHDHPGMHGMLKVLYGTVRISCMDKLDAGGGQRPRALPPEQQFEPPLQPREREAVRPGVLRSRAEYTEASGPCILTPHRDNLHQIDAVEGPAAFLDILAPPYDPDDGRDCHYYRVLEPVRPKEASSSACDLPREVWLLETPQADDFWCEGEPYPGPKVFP
Put plainly: SPR single-cycle kinetic (SCK) binding of cyclic peptides to ADO. As to conditions: 1:1 binding model, 4 °C, geometric mean of a minimum of three independent measurements (n = 3) with standard error. The text has this: After six cycles, clear enrichment of several CPs was observed by next-generation sequencing. The most enriched CPs (CP1-8, numbered according to their percentage enrichment in the final selection round) were selected for subsequent analysis (Table 1). CP1, 5, 6 and 7 are related in sequence, while CP2, 3, 4, and 8 are unique compositions (Fig. 1b). These CPs were subsequently produced by solid-phase peptide synthesis (SPPS) and analysed by surface plasmon resonance (SPR) using single cycle kinetic (SCK) analysis to confirm and quantify binding to ADO. ADO could interact with each CP to varying degrees (Supplementary Fig. 4, Table 1, Fig. 1dleft).
SPR measurements were made using a Biacore T200 (Cytiva) instrument and data were analysed using the Biacore Insight Evaluation Software. Biotinylated-ADO was immobilised on a Biotin CAP chip (Cytiva) with a target density of ∼2500–3000 RU and peptide/protein substrates were injected over the chip. Experiments were conducted at 4 °C using both multi-cycle (fit using the equilibrium steady state affinity 1:1 binding model) and single-cycle kinetics mode (fit using a 1:1 binding model). A buffer comprising 20 mM HEPES pH 7.5, 500 mM NaCl, 10 mM DTT, and 0.1% (v/v) tween-20 was used as the running buffer at a flow rate of 50 μL/minute.

Assay [2] has as its target T1, human ADO. Description: ADO activity inhibition assay (RGS5_2-15 oxidation monitored by LCMS): single-dose and IC50. The class given is biochemical. As for the experimental part:
We next tested the ability of the CPs to inhibit ADO activity. ADO activity was measured with and without 10 μM of each CP using an established stopped assay in which the oxidation of a representative substrate (RGS5_2-15; a synthetic peptide corresponding to the methionine excised N-terminus of RGS5, residues 2 to 15) was monitored by liquid chromatography coupled mass spectrometry (LCMS)[7],[35],[36].
The enzymatic activity of ADO was examined by incubating between 0–1000 μM peptide substrates with 0.1 μM ADO in a bench-top thermomixer at 37 °C for 45 seconds. Otherwise stated, the reaction buffer contained 50 mM Tris pH 7.5, 50 mM NaCl, and 5 mM TCEP. The reactions were quenched by mixing the sample 1:10 with 1% formic acid (v/v).
Peptide samples were injected onto a Chromolith® RP-18 Endcapped HPLC Columns (100–2 mm; Merck), heated to 40 °C and eluted at 0.3 ml/min using a gradient of 95% deionised water supplemented with 0.1% (v/v) formic acid to 95% acetonitrile. Oxidation was monitored by an ultra-high-performance liquid chromatography (UHPLC) mass spectrometry (MS) using ExionLC AD (Sciex) and SelexION (Sciex) mass spectrometer operated in a positive electrospray time-of-flight ( + ESI-TOF) mode. Instrument parameters, data acquisition and data processing were controlled by Analyst software (Sciex). The peptide data processing was performed using Skyline software. Turnover was quantified by comparing the areas underneath the product and substrate ions extracted from the total ion current chromatogram. All figures and parameters were generated using GraphPad Prism 9.

Assay [3] deals with ADO-D206N, biotinylated (pQE80L-Navi-ADO) (human) (UniProt Q96SZ5). Description: SPR; single-cycle kinetics (SCK), 1:1 binding model; biotinylated ADO or variant immobilised on a Biotin CAP chip, peptide injected at 25.6, 64, 160, 400, 1000 nM; 4 °C; 20 mM HEPES pH 7.5, 500 mM NaCl, 10 mM DTT, 0.1% (v/v) tween-20; 50 μL/minute.
In assay [4] the target is 2-aminoethanethiol dioxygenase (ADO), wild type, biotinylated (pQE80L-Navi-ADO) (human). Description: SPR; multi-cycle, equilibrium steady state affinity 1:1 binding model; biotinylated ADO or variant immobilised on a Biotin CAP chip (~2500-3000 RU), peptide injected; 4 °C; 20 mM HEPES pH 7.5, 500 mM NaCl, 10 mM DTT, 0.1% (v/v) tween-20; 50 μL/minute. In general terms: SPR reads the build-up and loss of mass on a sensor chip optically.

For assay [5], the target named is ADO with a change in Y212 (ADO-Y212) (human) (UniProt Q96SZ5). Description: SPR; biotinylated ADO (wild type or mutant) immobilised on a Biotin CAP chip, substrate peptides injected; 4 °C; 20 mM HEPES pH 7.5, 500 mM NaCl, 10 mM DTT, 0.1% tween-20; multi-cycle or single-cycle mode not given.
The target of assay [6] is ADO with a change in F101 (ADO-F101) (human) (UniProt Q96SZ5). Described as above.
In assay [7] the target is T2, 2-aminoethanethiol dioxygenase (ADO), full-length human, N-terminally His-tagged and biotinylated … (human, UniProt Q96SZ5 1-270, biotin (biotinylated during expression, 0.2 mM biotin added)).
T2 construct: 2-aminoethanethiol dioxygenase (ADO), human, UniProt Q96SZ5, full length; Immobilised through its biotin on a Biotin CAP chip for SPR; also called wild type ADO; Biotinylated-ADO; source: E. coli Rosetta2(DE3), purified (Ni-NTA, SEC); not shown: biotinylation tag (from the vector pQE80L-Navi), N-terminal, kept
T2 sequence (looked up): T1 sequence (Q96SZ5 1-270)
Description: SPR; single-cycle kinetics (1:1 binding model); biotinylated ADO immobilised on a Biotin CAP chip (~2500-3000 RU), cyclic peptide injected; Biacore T200, 4 °C; 20 mM HEPES pH 7.5, 500 mM NaCl, 10 mM DTT, 0.1% tween-20; 50 µL/minute; each cell is one of three independent measurements. As to conditions: both partners purified. An outline of the steps: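 A Biacore T200 with a Biotin CAP chip bearing about 2500–3000 RU of biotinylated human ADO, made in E. coli and purified, was used to test cyclic peptides at 4 °C and 50 µL/minute in HEPES pH 7.5 buffer with 500 mM NaCl, DTT and tween-20. Kd was derived from a 1:1 binding fit of single-cycle kinetic sensorgrams, measured three times independently.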

For assay [8], the target named is T3, 2-aminoethanethiol dioxygenase (ADO), full-length human, N-terminally His-tagged and biotinylated … (human, UniProt Q96SZ5 1-270, biotin (biotinylated during expression, 0.2 mM biotin added)).
T3 construct: 2-aminoethanethiol dioxygenase (ADO), human, UniProt Q96SZ5, full length; Construct used for RaPID screening and all SPR experiments; No tag cleavage step is described in its purification; also called wild type ADO; biotinylated ADO; source: E. coli Rosetta2(DE3), purified (Ni-NTA, SEC); not shown: biotinylation tag (from the vector pQE80L-Navi), N-terminal, kept
T3 sequence (looked up): T1 sequence (Q96SZ5 1-270)
Put plainly: SPR; single cycle kinetic (SCK) analysis, 1:1 binding model; biotinylated ADO immobilised on a Biotin CAP chip (~2500-3000 RU), cyclic peptides injected; 4 °C; 20 mM HEPES pH 7.5, 500 mM NaCl, 10 mM DTT, 0.1% tween-20; 50 μL/minute. The settings on record: both partners purified.

Assay [9] has as its target T2, 2-aminoethanethiol dioxygenase (ADO), …. Put plainly: SPR; single-cycle kinetics (1:1 binding model); biotinylated ADO immobilised on a Biotin CAP chip (~2500-3000 RU), cyclic peptide injected; Biacore T200, 4 °C; 20 mM HEPES pH 7.5, 500 mM NaCl, 10 mM DTT, 0.1% tween-20; 50 µL/minute; each cell is one of three independent measurements. The settings on record: both partners purified. This is another data set of the same source.

Where [10] appears, read: RGS5_2-15 substrate, LCMS, 37 °C, average of three independent experiments (n = 3), standard error, read-out: IC50.

Several values for one entry are separate records, joined by “and”; a condition that tells them apart may be missing. Identical values can stand only once. Like-named read-outs stand apart in the source and are kept apart here. Where a SMILES comes first, the peptide text is derived from it. Bridges are numbered along the chain shown (N, C = ends). Where no end group is shown, it is not given here. Side-chain parts run from the residue outwards. [ ]: non-standard residue; d: D form. Dap = NC[C@H](N)C(=O)O

In general, Kd refers to the concentration at which binding is half-saturated. `CC[C@H](C)[C@@H]1NC(=O)[C@H]([C@@H](C)O)NC(=O)CNC(=O)[C@H](CC(C)C)NC(=O)[C@H](C(C)C)NC(=O)[C@H](Cc2ccc(O)cc2)NC(=O)[C@H](Cc2ccc(O)cc2)NC(=O)[C@H](Cc2ccc(O)cc2)NC(=O)CSC[C@@H](C(N)=O)NC(=O)[C@H](Cc2ccccc2)NC(=O)[C@H](CCCNC(=N)N)NC(=O)[C@H](Cc2ccc(O)cc2)NC(=O)[C@H](CCCNC(=N)N)NC(=O)[C@H](CCCCN)NC(=O)[C@H](C(C)C)NC(=O)[C@H](CC(C)C)NC1=O` [CP4] ({CH2CO}-YYYVLGTILVKRYRFC-NH2; thioether N-16) registered a Kd on human ADO [1] of 1300 ± 140 nM. The IC50 at human ADO [2] (setting [10]) is greater than 50000 nM.

For the molecule `CC(C)C[C@@H]1NC(=O)[C@H](Cc2ccc(O)cc2)NC(=O)[C@H](CC(C)C)NC(=O)[C@H]([C@@H](C)O)NC(=O)[C@H](C(C)C)NC(=O)[C@H](CC(C)C)NC(=O)[C@H](CC(C)C)NC(=O)[C@H](Cc2ccc(O)cc2)NC(=O)CSC[C@@H](C(N)=O)NC(=O)[C@H](CO)NC(=O)[C@H](CCCNC(=N)N)NC(=O)[C@H](Cc2c[nH]cn2)NC(=O)[C@H]([C@@H](C)O)NC(=O)CNC1=O` [CP7] ({CH2CO}-YLLVTLYLGTHRSC-NH2; thioether N-14), the KD entry on human ADO [1] is “non-specific binding”. Further, the IC50 at human ADO [2] (setting [10]) is 9920 ± 290 nM.

`CC[C@H](C)[C@@H]1NC(=O)[C@H](Cc2ccc(O)cc2)NC(=O)CSC[C@@H](C(N)=O)NC(=O)[C@H](CCC(N)=O)NC(=O)[C@H](CCCNC(=N)N)NC(=O)[C@H](Cc2c[nH]cn2)NC(=O)[C@H](CO)NC(=O)CNC(=O)[C@H](CC(C)C)NC(=O)[C@H](Cc2c[nH]c3ccccc23)NC(=O)[C@H](CO)NC(=O)[C@H]([C@@H](C)O)NC(=O)[C@H](CCCCN)NC(=O)[C@H](C(C)C)NC1=O` [CP6-F6S] ({CH2CO}-YIVKTSWLGSHRQC-NH2; thioether N-14): at human ADO [2] (as given in the legend of Fig. 2c (concentration of CP added), read-out: half-maximal inhibitory concentration (IC50)), the IC50 is 200 nM.

As to “IL32_(2-15), synthetic peptide corresponding to the methionine excised N-terminus of IL32, residues 2-15 (from UniProt P24001 2-15)”, the Kd in assay [3] amounted to 70 nM; in assay [4] it was 460 nM.

For “RGS5_(2-15), synthetic peptide corresponding to the methionine excised N-terminus of RGS5, residues 2 to 15 (from UniProt O15539 2-15)”, the Kd is 150 nM in [3] and 640 nM in assay [4].

For CKGLAALPHSCLER, the values for the fold increase in KD relative to wild type ADO in assay [5] and in [6] were less than 113 fold and less than 80 fold, respectively.

Consider CFPKVLSDDMKKLK, for which the results for the fold increase in KD relative to wild type ADO in assay [5] and in assay [6] were less than 113 fold and less than 80 fold, respectively.

Turning to {CH2CO}-YIVKTFW[Dap]([Phe-Ser])GSHRQC (thioether N-14) [CP6-L8d-Phe-Ser, listing 1 of 2 here], the Kd in assay [7] was 79.9 nM and 77.7 nM and 78.1 nM.

With {CH2CO}-YIVKTFW[Dap]([Lys-Ser])GSHRQC (thioether N-14) [CP6-L8d-Lys-Ser], in [8], the affinity, expressed as Kd, was 490 nM.

In turn, {CH2CO}-YIVKTFW[Dap]([Gly-Ser])GSHRQC (thioether N-14) [CP6-L8d-Gly-Ser] gave a Kd in assay [8] of 150 nM.

B1: Cyclic peptide CP6 (peptide)
peptide: {CH2CO}-YIVKTFWLGSHRQC-NH2
modifications: thioether N-14
SMILES: CC[C@H](C)[C@@H]1NC(=O)[C@H](Cc2ccc(O)cc2)NC(=O)CSC[C@@H](C(N)=O)NC(=O)[C@H](CCC(N)=O)NC(=O)[C@H](CCCNC(=N)N)NC(=O)[C@H](Cc2c[nH]cn2)NC(=O)[C@H](CO)NC(=O)CNC(=O)[C@H](CC(C)C)NC(=O)[C@H](Cc2c[nH]c3ccccc23)NC(=O)[C@H](Cc2ccccc2)NC(=O)[C@H]([C@@H](C)O)NC(=O)[C@H](CCCCN)NC(=O)[C@H](C(C)C)NC1=O
notes: selected by RaPID mRNA display against ADO; source: synthetic peptide (SPPS)
Regarding B1, the Kd is 50.9 nM and 50.4 nM and 50.6 nM in assay [7]; 28.9 nM and 28.6 nM and 31.2 nM in assay [9].

B2: CP6-K4A (peptide)
peptide: {CH2CO}-YIVATFWLGSHRQC
modifications: thioether N-14
notes: the substitution K4A is to be applied to them; Single amino acid substituent of CP6; source: synthetic peptide
For B2, the Kd in assay [9] is 429 nM and 397 nM and 428 nM.

{CH2CO}-YIVKTFW[Dap]([Phe-Ser])GSHRQC (thioether N-14) [CP6-L8d-Phe-Ser, listing 2 of 2 here] displayed a Kd in assay [8] of 79 nM.
